# Source: IntAct's records for PubMed 18617507
# B1: Serine/threonine-protein kinase VRK1 (Homo sapiens), Q99986 (parent)
# chain: MPRVKAAQAGRQSSAKRHLAEQFAVGEIITDMAKKEWKVGLPIGQGGFGCIYLADMNSSESVGSDAPCVVKVEPSDNGPLFTELKFYQRAAKPEQIQKWIRTRKLKYLGVPKYWGSGLHDKNGKSYRFMIMDRFGSDLQKIYEANAKRFSRKTVLQLSLRILDILEYIHEHEYVHGDIKASNLLLNYKNPDQVYLVDYGLAYRYCPEGVHKEYKEDPKRCHDGTIEFTSIDAHNGVAPSRRGDLEILGYCMIQWLTGHLPWEDNLKDPKYVRDSKIRYRENIASLMDKCFPEKNKPGEIAKYMETVKLLDYTEKPLYENLRDILLQGLKAIGSKDDGKLDLSVVENGGLKAKTITKKRKKEIEESKEPGVEDTEWSNTQTEEAIQTRSRTRKRVQK
# Variants of: B1
# Details: with ran_human RAN
row,effect of a mutation on the interaction,Variant
1,decreasing interaction,K179E
